In article PMC6277039 (Biochemical and biophysical research communications, 2018):
Values joined by “and” are separate entries in the source; they are usually repeats but may differ in a detail not shown here. Equal values may be shown once.

Key:
Assay in all cases: ITC
[1] = target: HSPA1A wild-type (WT) (human, UniProt P0DMV8 1-641)
[2] = target: HSPA1A K71A (human, UniProt P0DMV8 1-641, K71A)
[3] = target: HSPA1A S16P (human, UniProt P0DMV8 1-641, S16P)
[4] = target: HSPA1A S16Y (human, UniProt P0DMV8 1-641, S16Y)
[5] = target: HSPA1A R36C (human, UniProt P0DMV8 1-641, R36C)
[6] = target: HSPA1A I74T (human, UniProt P0DMV8 1-641, I74T)
[7] = target: HSPA1A I480N (human, UniProt P0DMV8 1-641, I480N)
[8] = target: HSPA1A F592S (human, UniProt P0DMV8 1-641, F592S)
HSPA1A F592S, sequence (P0DMV8 whole entry F592S): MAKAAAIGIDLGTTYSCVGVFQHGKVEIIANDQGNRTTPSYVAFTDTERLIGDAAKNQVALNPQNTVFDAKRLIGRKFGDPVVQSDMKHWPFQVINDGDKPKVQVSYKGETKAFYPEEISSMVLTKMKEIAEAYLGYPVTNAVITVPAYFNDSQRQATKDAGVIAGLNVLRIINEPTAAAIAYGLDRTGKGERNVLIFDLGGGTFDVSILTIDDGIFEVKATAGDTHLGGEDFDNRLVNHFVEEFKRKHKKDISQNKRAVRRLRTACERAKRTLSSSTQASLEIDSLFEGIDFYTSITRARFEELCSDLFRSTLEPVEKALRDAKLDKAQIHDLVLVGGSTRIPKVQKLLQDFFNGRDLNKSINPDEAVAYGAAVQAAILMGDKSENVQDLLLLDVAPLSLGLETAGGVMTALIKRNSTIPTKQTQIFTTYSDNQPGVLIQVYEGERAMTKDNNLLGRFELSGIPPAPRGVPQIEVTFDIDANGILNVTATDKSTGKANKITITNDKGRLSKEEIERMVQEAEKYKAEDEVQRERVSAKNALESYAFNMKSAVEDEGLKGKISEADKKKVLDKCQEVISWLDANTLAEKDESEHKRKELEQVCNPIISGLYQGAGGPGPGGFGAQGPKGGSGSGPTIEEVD

HSPA1A I480N, sequence (P0DMV8 whole entry I480N): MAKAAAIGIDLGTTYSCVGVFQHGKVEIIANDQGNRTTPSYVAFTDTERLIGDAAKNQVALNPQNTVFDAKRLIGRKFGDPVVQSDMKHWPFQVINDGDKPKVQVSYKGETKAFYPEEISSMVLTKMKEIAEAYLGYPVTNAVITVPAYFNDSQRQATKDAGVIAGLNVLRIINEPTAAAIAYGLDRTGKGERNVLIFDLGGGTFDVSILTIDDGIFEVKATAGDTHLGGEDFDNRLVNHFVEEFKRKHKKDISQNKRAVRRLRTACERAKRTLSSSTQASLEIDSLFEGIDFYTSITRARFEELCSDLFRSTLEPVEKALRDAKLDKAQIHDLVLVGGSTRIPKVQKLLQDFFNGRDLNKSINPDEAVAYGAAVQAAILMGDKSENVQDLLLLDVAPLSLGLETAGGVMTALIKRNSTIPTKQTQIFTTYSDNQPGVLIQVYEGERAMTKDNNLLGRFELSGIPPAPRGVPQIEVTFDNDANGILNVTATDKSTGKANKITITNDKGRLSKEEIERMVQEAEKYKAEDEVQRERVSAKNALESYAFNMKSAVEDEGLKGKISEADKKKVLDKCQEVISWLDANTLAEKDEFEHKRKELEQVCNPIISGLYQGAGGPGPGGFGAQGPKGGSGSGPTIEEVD
HSPA1A S16Y, sequence (P0DMV8 whole entry S16Y): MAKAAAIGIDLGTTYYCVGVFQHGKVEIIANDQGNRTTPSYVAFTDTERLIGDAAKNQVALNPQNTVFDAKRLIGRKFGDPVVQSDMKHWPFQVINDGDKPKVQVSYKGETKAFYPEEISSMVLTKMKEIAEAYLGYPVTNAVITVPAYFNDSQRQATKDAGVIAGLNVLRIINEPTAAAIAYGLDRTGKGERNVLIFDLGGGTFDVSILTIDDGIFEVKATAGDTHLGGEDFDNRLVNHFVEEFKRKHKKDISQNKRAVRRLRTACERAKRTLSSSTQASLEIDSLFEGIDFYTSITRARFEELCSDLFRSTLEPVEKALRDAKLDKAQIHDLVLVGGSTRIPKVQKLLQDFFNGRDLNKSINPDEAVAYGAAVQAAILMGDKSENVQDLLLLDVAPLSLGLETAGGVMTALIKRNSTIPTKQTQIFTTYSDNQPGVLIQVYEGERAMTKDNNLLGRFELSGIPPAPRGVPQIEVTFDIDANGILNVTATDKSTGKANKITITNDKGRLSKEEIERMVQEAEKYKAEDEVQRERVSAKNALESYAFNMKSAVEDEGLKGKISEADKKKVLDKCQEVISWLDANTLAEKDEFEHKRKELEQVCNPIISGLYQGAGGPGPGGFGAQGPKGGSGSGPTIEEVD
HSPA1A wild-type (WT), sequence (P0DMV8 whole entry): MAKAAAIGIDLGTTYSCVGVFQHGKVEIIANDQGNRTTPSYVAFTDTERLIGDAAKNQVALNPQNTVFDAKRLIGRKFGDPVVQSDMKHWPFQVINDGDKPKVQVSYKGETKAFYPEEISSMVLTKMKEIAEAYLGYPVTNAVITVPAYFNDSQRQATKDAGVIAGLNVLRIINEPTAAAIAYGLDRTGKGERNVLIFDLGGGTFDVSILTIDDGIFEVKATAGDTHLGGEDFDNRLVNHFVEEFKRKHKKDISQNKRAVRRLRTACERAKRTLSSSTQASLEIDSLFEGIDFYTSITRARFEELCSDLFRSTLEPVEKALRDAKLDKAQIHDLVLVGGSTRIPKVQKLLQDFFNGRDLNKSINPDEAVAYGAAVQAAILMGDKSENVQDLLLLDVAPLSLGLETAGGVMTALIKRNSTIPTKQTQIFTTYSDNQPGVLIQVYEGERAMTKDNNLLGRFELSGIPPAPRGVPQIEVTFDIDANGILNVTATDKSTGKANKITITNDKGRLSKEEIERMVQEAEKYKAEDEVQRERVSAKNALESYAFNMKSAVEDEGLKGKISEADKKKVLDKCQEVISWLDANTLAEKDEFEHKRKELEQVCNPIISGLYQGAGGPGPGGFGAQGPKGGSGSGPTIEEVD
HSPA1A R36C, sequence (P0DMV8 whole entry R36C): as the sequence (P0DMV8 whole entry S16Y) above, with Y16S, R36C counted along it
HSPA1A K71A, sequence (P0DMV8 whole entry K71A): as the sequence (P0DMV8 whole entry S16Y) above, with Y16S, K71A counted along it
HSPA1A S16P, sequence (P0DMV8 whole entry S16P): as the sequence (P0DMV8 whole entry S16Y) above, with Y16P counted along it
HSPA1A I74T, sequence (P0DMV8 whole entry I74T): as the sequence (P0DMV8 whole entry S16Y) above, with Y16S, I74T counted along it

- Kd [1]: 335 nM and 529 nM and 364 nM
- dH [1]: -6.18 kcal/mol and -4.72 kcal/mol and -4.79 kcal/mol
- stoichiometry N [1]: 0.993 and 1 and 1.02
- Kd [2]: 528 nM and 615 nM and 635 nM
- dH [2]: -2.77 kcal/mol and -3.32 kcal/mol and -2.86 kcal/mol
- stoichiometry N [2]: 0.982 and 1 and 0.989
- Kd [3]: 738 nM and 679 nM and 599 nM
- dH [3]: -2.98 kcal/mol and -3.21 kcal/mol and -3.22 kcal/mol
- stoichiometry N [3]: 0.991 and 1 and 1.03
- Kd [4]: 335 nM and 331 nM and 315 nM
- dH [4]: -10.2 kcal/mol and -9.96 kcal/mol and -9.74 kcal/mol
- stoichiometry N [4]: 1.04 and 1.02 and 1.01
- Kd [5]: 576 nM and 472 nM and 509 nM
- dH [5]: -3.75 kcal/mol and -3.81 kcal/mol and -3.88 kcal/mol
- stoichiometry N [5]: 1.03 and 1 and 0.984
- Kd [6]: 999 nM and 995 nM and 935 nM
- dH [6]: -4.52 kcal/mol and -4.7 kcal/mol and -4.85 kcal/mol
- stoichiometry N [6]: 0.998 and 0.985 and 1.01
- Kd [7]: 710 nM and 661 nM and 697 nM
- dH [7]: -4.43 kcal/mol and -5.06 kcal/mol and -4.72 kcal/mol
- stoichiometry N [7]: 1.02 (2×) and 1.01
- Kd [8]: 559 nM and 500 nM and 374 nM
- dH [8]: -3.84 kcal/mol and -4.67 kcal/mol and -3.66 kcal/mol
- stoichiometry N [8]: 1.07 and 1.04 and 1.06
B1: protein substrate (peptide NIVAKKK) (peptide)
peptide: NIVAKKK
